Test results reported in US20010043931A1, “Human respiratory syncytial virus” (Whitehead Institute for Biomedical Research, priority 1999, published 2001).

Key:
[1] = Thermal denaturation followed by circular dichroism (CD) spectroscopy; assay type: physicochemical; details: at 10 μM in PBS
Description: CD spectra were measured at protein concentration 10 μM in PBS buffer using an AVIV 62 DS spectrometer (Aviv Associates, Lakewood, N.J.), as described (Fass, D. & Kim, P. S., Curr. Biol., 5:1377-1383 (1995).

[2] = molecular target: T1, HRSV-N51 peptide (residues 157-207 of HRSV F0) (human respiratory syncytial virus …); assay: complex left after proteinase K digestion of HRSV-N57/C45; CD thermal melt
T1 construct: Made by proteinase K trimming of the HRSV-N57/C45 complex
T1 peptide: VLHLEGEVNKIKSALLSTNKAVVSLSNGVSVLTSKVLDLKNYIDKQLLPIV

HRSV-C45: C-terminal trypsin fragment of recRSV-1, residues 476-520 of HRSV F0 (SEQ ID NO.: 2) (NFYDPLVFPSDEFDASISQVNEKINQSLAFIRKSDELLHNVNAGK)
apparent Tm [1]: does not show a thermal unfolding transition

HRSV-N57: N-terminal trypsin fragment of recRSV-1, residues 153-209 of HRSV F0 (SEQ ID NO.: 1) (AVSKVLHLEGEVNKIKSALLSTNKAVVSLSNGVSVLTSKVLDLKNYIDKQLLPIVNK)
apparent Tm [1]: 40-50 °C

B1: HRSV-C39 peptide (residues 482-520 of HRSV F0) (peptide)
peptide: VFPSDEFDASISQVNEKINQSLAFIRKSDELLHNVNAGK
notes: Made by proteinase K trimming of the HRSV-N57/C45 complex
binding result [2]: binds
